Experimental data published in PMC10786891, “Massively parallel profiling of RNA-targeting CRISPR-Cas13d”.

T1: EsCas13d, nuclease-dead (Eubacterium siraeum, UniProt B0MS50, R295A;H300A;R849A;H854A)
T1 sequence: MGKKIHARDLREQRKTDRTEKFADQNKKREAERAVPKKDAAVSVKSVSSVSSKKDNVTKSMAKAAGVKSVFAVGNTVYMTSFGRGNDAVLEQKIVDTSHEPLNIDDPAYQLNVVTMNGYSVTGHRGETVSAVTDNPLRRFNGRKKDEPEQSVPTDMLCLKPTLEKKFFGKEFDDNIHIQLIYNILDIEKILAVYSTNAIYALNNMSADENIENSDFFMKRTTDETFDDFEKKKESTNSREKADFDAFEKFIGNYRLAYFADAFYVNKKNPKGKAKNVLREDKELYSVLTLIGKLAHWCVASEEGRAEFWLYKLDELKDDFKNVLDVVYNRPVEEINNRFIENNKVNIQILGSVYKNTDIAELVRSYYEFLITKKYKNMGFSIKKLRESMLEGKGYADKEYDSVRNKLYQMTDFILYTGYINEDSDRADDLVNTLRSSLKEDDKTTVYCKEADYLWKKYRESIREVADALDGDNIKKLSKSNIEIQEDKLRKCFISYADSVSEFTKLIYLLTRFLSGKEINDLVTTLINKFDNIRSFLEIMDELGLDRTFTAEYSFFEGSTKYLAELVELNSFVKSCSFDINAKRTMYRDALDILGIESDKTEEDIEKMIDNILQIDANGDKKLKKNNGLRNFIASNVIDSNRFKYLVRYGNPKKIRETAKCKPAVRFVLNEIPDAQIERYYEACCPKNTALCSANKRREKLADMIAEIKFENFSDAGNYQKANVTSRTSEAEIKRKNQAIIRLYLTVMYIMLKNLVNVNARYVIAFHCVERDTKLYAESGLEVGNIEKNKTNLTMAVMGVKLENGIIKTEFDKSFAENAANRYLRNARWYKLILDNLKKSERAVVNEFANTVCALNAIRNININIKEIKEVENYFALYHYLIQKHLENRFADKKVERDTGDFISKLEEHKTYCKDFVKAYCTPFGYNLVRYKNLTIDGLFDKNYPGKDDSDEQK

B1: target 1 del7,del16 (mixed)
RNA 1: CACCCGUGCAAAAAUGCAGGGGUCUAAAACUGAGCGGAUAACCUCUCUAUGG
RNA 2: GGGAAUGGAUCCACAUCUACGAAUUCGUACCAUAGGAGGUUAUCGCUCACCGAGAUCGGAAGAGCACACGU
B2: target 1 insC 3' of 22,insA 3' of 6 (mixed)
RNA 1: CACCCGUGCAAAAAUGCAGGGGUCUAAAACUGAGCGGAUAACCUCUCUAUGG
RNA 2: GGGAAUGGAUCCACAUCUACGAAUUCGUACCCAUAGAGAGGUUAUCCAGCUCACCGAGAUCGGAAGAGCACACGU
B3: target 1 A18C,U19A (mixed)
RNA 1: CACCCGUGCAAAAAUGCAGGGGUCUAAAACUGAGCGGAUAACCUCUCUAUGG
RNA 2: GGGAAUGGAUCCACAUCUACGAAUUCGUACCAACGAGAGGUUAUCCGCUCACCGAGAUCGGAAGAGCACACGU
B4: target 2 MT 5'PFS CAU 3'PFS CUG (mixed)
RNA 1: CACCCGUGCAAAAUUGCAGGGGUCUAAAACCUUCUCCAAAUUGUUUCAUCCU
RNA 2: GGGAAUGGAUCCACAUCUACGAAUUCCAUAGGAUGAAACAAUUUGGAGAAGCUGAGAUCGGAAGAGCACACGU
B5: target 2 MT 5'PFS AGA 3'PFS CAA (mixed)
RNA 1: CACCCGUGCAAAAUUGCAGGGGUCUAAAACCUUCUCCAAAUUGUUUCAUCCU
RNA 2: GGGAAUGGAUCCACAUCUACGAAUUCAGAAGGAUGAAACAAUUUGGAGAAGCAAAGAUCGGAAGAGCACACGU
B6: target 2 MT 5'PFS AGA 3'PFS CAG (mixed)
RNA 1: CACCCGUGCAAAAUUGCAGGGGUCUAAAACCUUCUCCAAAUUGUUUCAUCCU
RNA 2: GGGAAUGGAUCCACAUCUACGAAUUCAGAAGGAUGAAACAAUUUGGAGAAGCAGAGAUCGGAAGAGCACACGU
B7: target 2 MT 5'PFS CGC 3'PFS UUG (mixed)
RNA 1: CACCCGUGCAAAAUUGCAGGGGUCUAAAACCUUCUCCAAAUUGUUUCAUCCU
RNA 2: GGGAAUGGAUCCACAUCUACGAAUUCCGCAGGAUGAAACAAUUUGGAGAAGUUGAGAUCGGAAGAGCACACGU
B8: target 2 MT 5'PFS AGC 3'PFS ACG (mixed)
RNA 1: CACCCGUGCAAAAUUGCAGGGGUCUAAAACCUUCUCCAAAUUGUUUCAUCCU
RNA 2: GGGAAUGGAUCCACAUCUACGAAUUCAGCAGGAUGAAACAAUUUGGAGAAGACGAGAUCGGAAGAGCACACGU
B9: target 2 MT 5'PFS AGU 3'PFS CAC (mixed)
RNA 1: CACCCGUGCAAAAUUGCAGGGGUCUAAAACCUUCUCCAAAUUGUUUCAUCCU
RNA 2: GGGAAUGGAUCCACAUCUACGAAUUCAGUAGGAUGAAACAAUUUGGAGAAGCACAGAUCGGAAGAGCACACGU
B10: target 2 MT 5'PFS GUG 3'PFS UCG (mixed)
RNA 1: CACCCGUGCAAAAUUGCAGGGGUCUAAAACCUUCUCCAAAUUGUUUCAUCCU
RNA 2: GGGAAUGGAUCCACAUCUACGAAUUCGUGAGGAUGAAACAAUUUGGAGAAGUCGAGAUCGGAAGAGCACACGU
B11: target 2 MT 5'PFS GUG 3'PFS UCU (mixed)
RNA 1: CACCCGUGCAAAAUUGCAGGGGUCUAAAACCUUCUCCAAAUUGUUUCAUCCU
RNA 2: GGGAAUGGAUCCACAUCUACGAAUUCGUGAGGAUGAAACAAUUUGGAGAAGUCUAGAUCGGAAGAGCACACGU
B12: target 2 MT 5'PFS UAC 3'PFS UGC (mixed)
RNA 1: CACCCGUGCAAAAUUGCAGGGGUCUAAAACCUUCUCCAAAUUGUUUCAUCCU
RNA 2: GGGAAUGGAUCCACAUCUACGAAUUCUACAGGAUGAAACAAUUUGGAGAAGUGCAGAUCGGAAGAGCACACGU
B13: target 2 MT 5'PFS ACA 3'PFS UAA (mixed)
RNA 1: CACCCGUGCAAAAUUGCAGGGGUCUAAAACCUUCUCCAAAUUGUUUCAUCCU
RNA 2: GGGAAUGGAUCCACAUCUACGAAUUCACAAGGAUGAAACAAUUUGGAGAAGUAAAGAUCGGAAGAGCACACGU
B14: target 2 MT 5'PFS AGU 3'PFS CAG (mixed)
RNA 1: CACCCGUGCAAAAUUGCAGGGGUCUAAAACCUUCUCCAAAUUGUUUCAUCCU
RNA 2: GGGAAUGGAUCCACAUCUACGAAUUCAGUAGGAUGAAACAAUUUGGAGAAGCAGAGAUCGGAAGAGCACACGU
B15: target 2 MT 5'PFS AGC 3'PFS ACA (mixed)
RNA 1: CACCCGUGCAAAAUUGCAGGGGUCUAAAACCUUCUCCAAAUUGUUUCAUCCU
RNA 2: GGGAAUGGAUCCACAUCUACGAAUUCAGCAGGAUGAAACAAUUUGGAGAAGACAAGAUCGGAAGAGCACACGU
B16: target 2 MT 5'PFS UUC 3'PFS UAC (mixed)
RNA 1: CACCCGUGCAAAAUUGCAGGGGUCUAAAACCUUCUCCAAAUUGUUUCAUCCU
RNA 2: GGGAAUGGAUCCACAUCUACGAAUUCUUCAGGAUGAAACAAUUUGGAGAAGUACAGAUCGGAAGAGCACACGU
B17: target 2 MT 5'PFS GUG 3'PFS UCA (mixed)
RNA 1: CACCCGUGCAAAAUUGCAGGGGUCUAAAACCUUCUCCAAAUUGUUUCAUCCU
RNA 2: GGGAAUGGAUCCACAUCUACGAAUUCGUGAGGAUGAAACAAUUUGGAGAAGUCAAGAUCGGAAGAGCACACGU
B18: target 2 MT 5'PFS AUC 3'PFS CUA (mixed)
RNA 1: CACCCGUGCAAAAUUGCAGGGGUCUAAAACCUUCUCCAAAUUGUUUCAUCCU
RNA 2: GGGAAUGGAUCCACAUCUACGAAUUCAUCAGGAUGAAACAAUUUGGAGAAGCUAAGAUCGGAAGAGCACACGU
B19: target 2 MT 5'PFS GUG 3'PFS UCC (mixed)
RNA 1: CACCCGUGCAAAAUUGCAGGGGUCUAAAACCUUCUCCAAAUUGUUUCAUCCU
RNA 2: GGGAAUGGAUCCACAUCUACGAAUUCGUGAGGAUGAAACAAUUUGGAGAAGUCCAGAUCGGAAGAGCACACGU
B20: target 2 MT 5'PFS UAC 3'PFS AAU (mixed)
RNA 1: CACCCGUGCAAAAUUGCAGGGGUCUAAAACCUUCUCCAAAUUGUUUCAUCCU
RNA 2: GGGAAUGGAUCCACAUCUACGAAUUCUACAGGAUGAAACAAUUUGGAGAAGAAUAGAUCGGAAGAGCACACGU
B21: target 2 MT 5'PFS ACA 3'PFS UAU (mixed)
RNA 1: CACCCGUGCAAAAUUGCAGGGGUCUAAAACCUUCUCCAAAUUGUUUCAUCCU
RNA 2: GGGAAUGGAUCCACAUCUACGAAUUCACAAGGAUGAAACAAUUUGGAGAAGUAUAGAUCGGAAGAGCACACGU
B22: target 2 MT 5'PFS AUC 3'PFS CUC (mixed)
RNA 1: CACCCGUGCAAAAUUGCAGGGGUCUAAAACCUUCUCCAAAUUGUUUCAUCCU
RNA 2: GGGAAUGGAUCCACAUCUACGAAUUCAUCAGGAUGAAACAAUUUGGAGAAGCUCAGAUCGGAAGAGCACACGU
B23: target 2 MT 5'PFS CGC 3'PFS UUA (mixed)
RNA 1: CACCCGUGCAAAAUUGCAGGGGUCUAAAACCUUCUCCAAAUUGUUUCAUCCU
RNA 2: GGGAAUGGAUCCACAUCUACGAAUUCCGCAGGAUGAAACAAUUUGGAGAAGUUAAGAUCGGAAGAGCACACGU
B24: target 2 MT 5'PFS ACA 3'PFS UAC (mixed)
RNA 1: CACCCGUGCAAAAUUGCAGGGGUCUAAAACCUUCUCCAAAUUGUUUCAUCCU
RNA 2: GGGAAUGGAUCCACAUCUACGAAUUCACAAGGAUGAAACAAUUUGGAGAAGUACAGAUCGGAAGAGCACACGU
B25: target 2 MT 5'PFS GUU 3'PFS ACU (mixed)
RNA 1: CACCCGUGCAAAAUUGCAGGGGUCUAAAACCUUCUCCAAAUUGUUUCAUCCU
RNA 2: GGGAAUGGAUCCACAUCUACGAAUUCGUUAGGAUGAAACAAUUUGGAGAAGACUAGAUCGGAAGAGCACACGU
B26: target 2 MT 5'PFS AGA 3'PFS CAC (mixed)
RNA 1: CACCCGUGCAAAAUUGCAGGGGUCUAAAACCUUCUCCAAAUUGUUUCAUCCU
RNA 2: GGGAAUGGAUCCACAUCUACGAAUUCAGAAGGAUGAAACAAUUUGGAGAAGCACAGAUCGGAAGAGCACACGU
B27: target 2 MT 5'PFS AAC 3'PFS AAA (mixed)
RNA 1: CACCCGUGCAAAAUUGCAGGGGUCUAAAACCUUCUCCAAAUUGUUUCAUCCU
RNA 2: GGGAAUGGAUCCACAUCUACGAAUUCAACAGGAUGAAACAAUUUGGAGAAGAAAAGAUCGGAAGAGCACACGU
B28: target 2 MT 5'PFS AUC 3'PFS CUU (mixed)
RNA 1: CACCCGUGCAAAAUUGCAGGGGUCUAAAACCUUCUCCAAAUUGUUUCAUCCU
RNA 2: GGGAAUGGAUCCACAUCUACGAAUUCAUCAGGAUGAAACAAUUUGGAGAAGCUUAGAUCGGAAGAGCACACGU

These binders were tested against T1, EsCas13d, nuclease-dead (assay: crRNA (strand 1, pre-loaded); Mg2+; 40 mM Tris-HCl pH 7.5, 150 mM NaCl, 6 mM MgCl2, 1 mM DTT, 0.1% Tween-20, 0.2 mg/ml BSA; 25 C; 10 min per concentration, then washed). Details: tags: His6-TwinStrep-SUMO cleaved; N-terminal SNAP kept (SNAP-Surface 488); label: 3' end held by stalled T7 RNA polymerase.

For B1, which Kd is on record?
The Kd was 45 ± 6 nM.

How did the Kd turn out when B2 was run?
Its Kd is 12.9 ± 0.9 nM.

How did the Kd turn out when B3 was run?
The Kd was 49 ± 4 nM.

Which Kd does the source give for B4 here?
The Kd was 5.4 ± 0.8 nM.

B5 was tested. Which Kd did it give?
The Kd was 3.5 ± 0.8 nM.

With B6 as the binder, how does the Kd read?
Its Kd is 5.7 ± 0.8 nM.

How did the Kd turn out when B7 was run?
Its Kd is 8.1 ± 1.4 nM.

With B8 as the binder, how does the Kd read?
Its Kd is 7.1 ± 0.9 nM.

For B9, which Kd is on record?
Its Kd is 15 ± 5 nM.

B10 was tested. Which Kd did it give?
The Kd was 18.2 ± 2.2 nM.

Which Kd does the source give for B11 here?
Its Kd is 18.9 ± 1.8 nM.

Which Kd does the source give for B12 here?
Its Kd is 6 ± 0.8 nM.

How did the Kd turn out when B13 was run?
Its Kd is 4.3 ± 1.4 nM.

For B14, which Kd is on record?
The Kd was 14.2 ± 3.1 nM.

How did the Kd turn out when B15 was run?
Its Kd is 7.9 ± 3.2 nM.

With B16 as the binder, how does the Kd read?
The Kd was 17 ± 6 nM.

How did the Kd turn out when B17 was run?
The Kd was 17.3 ± 2.7 nM.

For B18, which Kd is on record?
Its Kd is about 90 nM.

Which Kd does the source give for B19 here?
The Kd was 42 ± 6 nM.

For B20, which Kd is on record?
The Kd was 10 ± 4 nM.

How did the Kd turn out when B21 was run?
Its Kd is 5.1 ± 1.1 nM.

B22 was tested. Which Kd did it give?
Its Kd is 66 ± 25 nM.

How did the Kd turn out when B23 was run?
The Kd was 11.1 ± 2.5 nM.

With B24 as the binder, how does the Kd read?
The Kd was about 18 nM.

B25 was tested. Which Kd did it give?
Its Kd is 15.5 ± 1 nM.

B26 was tested. Which Kd did it give?
Its Kd is 7.4 ± 1.6 nM.

Which Kd does the source give for B27 here?
Its Kd is 10 ± 5 nM.

With B28 as the binder, how does the Kd read?
The Kd was about 90 nM.
